Test results taken from the Human Domainome abundance scans (Beltran et al. 2025).
± gives the uncertainty stated by the source.

B1: Ankyrin repeat and SAM domain-containing protein 6, residues 774 to 836; numbered along this chain, Q68DC2 (parent)
chain: DEDELTGILKKLSLEKYQPIFEEQEVDMEAFLTLTDGDLKELGIKTDGSRQQILAAISELNAG

Variants of: B1
Experiment: abundance fitness (aPCA) (normalised: wild type 0, dead -1); higher = more abundant; growth selection in yeast, the domain comes from the species named
Settings: Homo sapiens

Variant	abundance fitness
DEDELTGILKKLSLEKYQPIFEEQEVDMEAFLTLTDGDLKELGIKTDGSRQQIRAAISELNAG [L54R]	-0.337 ± 0.041
DEDELTGILKKLSLEKYQPIFEEQEVDMEAFLTLTDGDLKELGIKTDGSRQQIVAAISELNAG [L54V]	-0.252 ± 0.054
DEDELTGILKKLSLEKYQPIFEEQEVDMEAFLTLTDGDLKELGIKTDGSRQQIGAAISELNAG [L54G]	-0.433 ± 0.059
DEDELTGILKKLSLEKYQPIFEEQEVDMEAFLTLTDGDLKELGIKTDGSRQQIHAAISELNAG [L54H]	-0.439 ± 0.09
DEDELTGILKKLSLEKYQPIFEEQEVDMEAFLTLTDGDLKELGIKTDGSRQQISAAISELNAG [L54S]	-0.234 ± 0.048
DEDELTGILKKLSLEKYQPIFEEQEVDMEAFLTLTDGDLKELGIKTDGSRQQIPAAISELNAG [L54P]	-0.311 ± 0.053
DEDELTGILKKLSLEKYQPIFEEQEVDMEAFLTLTDGDLKELGIKTDGSRQQIWAAISELNAG [L54W]	-0.813 ± 0.059
DEDELTGILKKLSLEKYQPIFEEQEVDMEAFLTLTDGDLKELGIKTDGSRQQIKAAISELNAG [L54K]	-0.245 ± 0.048
DEDELTGILKKLSLEKYQPIFEEQEVDMEAFLTLTDGDLKELGIKTDGSRQQIYAAISELNAG [L54Y]	-0.634 ± 0.085
DEDELTGILKKLSLEKYQPIFEEQEVDMEAFLTLTDGDLKELGIKTDGSRQQITAAISELNAG [L54T]	-0.312 ± 0.057
DEDELTGILKKLSLEKYQPIFEEQEVDMEAFLTLTDGDLKELGIKTDGSRQQIQAAISELNAG [L54Q]	-0.273 ± 0.065
DEDELTGILKKLSLEKYQPIFEEQEVDMEAFLTLTDGDLKELGIKTDGSRQQIIAAISELNAG [L54I]	-0.133 ± 0.063
DEDELTGILKKLSLEKYQPIFEEQEVDMEAFLTLTDGDLKELGIKTDGSRQQIMAAISELNAG [L54M]	-0.137 ± 0.077
DEDELTGILKKLSLEKYQPIFEEQEVDMEAFLTLTDGDLKELGIKTDGSRQQILCAISELNAG [A55C]	0.046 ± 0.051
DEDELTGILKKLSLEKYQPIFEEQEVDMEAFLTLTDGDLKELGIKTDGSRQQILEAISELNAG [A55E]	0.031 ± 0.075
DEDELTGILKKLSLEKYQPIFEEQEVDMEAFLTLTDGDLKELGIKTDGSRQQILSAISELNAG [A55S]	0.043 ± 0.042
DEDELTGILKKLSLEKYQPIFEEQEVDMEAFLTLTDGDLKELGIKTDGSRQQILMAISELNAG [A55M]	-0.21 ± 0.094
DEDELTGILKKLSLEKYQPIFEEQEVDMEAFLTLTDGDLKELGIKTDGSRQQILKAISELNAG [A55K]	0.112 ± 0.096
DEDELTGILKKLSLEKYQPIFEEQEVDMEAFLTLTDGDLKELGIKTDGSRQQILFAISELNAG [A55F]	-0.256 ± 0.065
DEDELTGILKKLSLEKYQPIFEEQEVDMEAFLTLTDGDLKELGIKTDGSRQQILQAISELNAG [A55Q]	-0.022 ± 0.068
DEDELTGILKKLSLEKYQPIFEEQEVDMEAFLTLTDGDLKELGIKTDGSRQQILIAISELNAG [A55I]	-0.203 ± 0.095
DEDELTGILKKLSLEKYQPIFEEQEVDMEAFLTLTDGDLKELGIKTDGSRQQILYAISELNAG [A55Y]	-0.128 ± 0.049

Variant	abundance fitness
DEDELTGILKKLSLEKYQPIFEEQEVDMEAFLTLTDGDLKELGIKTDGSRQQILVAISELNAG [A55V]	-0.301 ± 0.049
DEDELTGILKKLSLEKYQPIFEEQEVDMEAFLTLTDGDLKELGIKTDGSRQQILTAISELNAG [A55T]	0.063 ± 0.077
DEDELTGILKKLSLEKYQPIFEEQEVDMEAFLTLTDGDLKELGIKTDGSRQQILPAISELNAG [A55P]	-0.528 ± 0.067
DEDELTGILKKLSLEKYQPIFEEQEVDMEAFLTLTDGDLKELGIKTDGSRQQILRAISELNAG [A55R]	0.108 ± 0.037
DEDELTGILKKLSLEKYQPIFEEQEVDMEAFLTLTDGDLKELGIKTDGSRQQILWAISELNAG [A55W]	-0.386 ± 0.055
DEDELTGILKKLSLEKYQPIFEEQEVDMEAFLTLTDGDLKELGIKTDGSRQQILGAISELNAG [A55G]	0.105 ± 0.041
DEDELTGILKKLSLEKYQPIFEEQEVDMEAFLTLTDGDLKELGIKTDGSRQQILNAISELNAG [A55N]	0.014 ± 0.082
DEDELTGILKKLSLEKYQPIFEEQEVDMEAFLTLTDGDLKELGIKTDGSRQQILLAISELNAG [A55L]	-0.159 ± 0.05
DEDELTGILKKLSLEKYQPIFEEQEVDMEAFLTLTDGDLKELGIKTDGSRQQILASISELNAG [A56S]	-0.157 ± 0.042
DEDELTGILKKLSLEKYQPIFEEQEVDMEAFLTLTDGDLKELGIKTDGSRQQILANISELNAG [A56N]	-0.385 ± 0.075
DEDELTGILKKLSLEKYQPIFEEQEVDMEAFLTLTDGDLKELGIKTDGSRQQILAFISELNAG [A56F]	-0.246 ± 0.074
DEDELTGILKKLSLEKYQPIFEEQEVDMEAFLTLTDGDLKELGIKTDGSRQQILAEISELNAG [A56E]	0.004 ± 0.079
DEDELTGILKKLSLEKYQPIFEEQEVDMEAFLTLTDGDLKELGIKTDGSRQQILAMISELNAG [A56M]	-0.227 ± 0.08
DEDELTGILKKLSLEKYQPIFEEQEVDMEAFLTLTDGDLKELGIKTDGSRQQILADISELNAG [A56D]	-0.183 ± 0.079
DEDELTGILKKLSLEKYQPIFEEQEVDMEAFLTLTDGDLKELGIKTDGSRQQILACISELNAG [A56C]	0.007 ± 0.051
DEDELTGILKKLSLEKYQPIFEEQEVDMEAFLTLTDGDLKELGIKTDGSRQQILAIISELNAG [A56I]	-0.486 ± 0.14
DEDELTGILKKLSLEKYQPIFEEQEVDMEAFLTLTDGDLKELGIKTDGSRQQILAHISELNAG [A56H]	-0.147 ± 0.075
DEDELTGILKKLSLEKYQPIFEEQEVDMEAFLTLTDGDLKELGIKTDGSRQQILAPISELNAG [A56P]	-0.377 ± 0.055
DEDELTGILKKLSLEKYQPIFEEQEVDMEAFLTLTDGDLKELGIKTDGSRQQILAGISELNAG [A56G]	0.009 ± 0.041
DEDELTGILKKLSLEKYQPIFEEQEVDMEAFLTLTDGDLKELGIKTDGSRQQILAKISELNAG [A56K]	-0.202 ± 0.051
DEDELTGILKKLSLEKYQPIFEEQEVDMEAFLTLTDGDLKELGIKTDGSRQQILALISELNAG [A56L]	-0.17 ± 0.037
